Key:
[1] = target: His-tagged GCN5-NLS-GFP (NLS of T. gondii histone acetyltransferase GCN5 fused to GFP) (Toxoplasma gondii); assay: AlphaScreen or HTRF; biotinylated IMPαs titrated against His-tagged NLS-GFPs (30 nM); apparent dissociation constant
[2] = target: His-tagged TGS1-NLS-GFP (NLS of P. falciparum trimethylguanosine synthase fused to GFP) (Plasmodium falciparum); assay: as above

B1: Plasmodium falciparum importin α, biotinylated GST fusion protein (natural protein)
chain: MDRRIEARRKEFKKNCDDTRRKREDLVVQIRKQQRECQLESKRAMVMANIGFEENNTYNLNYAKGNQNDSTNDSIYNTSSNNSSNTLEMLKKIPTLAIGVRSNEYVTQLNSTRELRKLLSIEKGPPIQEVINSGVVPYIVEFLKYDDKTDLQFEAAWVITNIASGSQEQTKVVIDNNAVPHLVRLLSSEKEDVCEQAVWALGNIAGDSAECREYVLNQNSLPLLLKILRTSHKRTLIRNAAWTLSNLCRGKPAPKFEIVSKALPTLAALIYNDDEEILTDACWTLSYLSDGSNENINSVLDAGVAERVVELLSHCSFLVQTPALRTVGNIVTGDDLQTDVVVKLGAVQKLSCLLNSSKKSIKKEACWALSNITAGNISQIQAVIDNNVIPQLINILMKEDFEVRKEAAWAISNASSGGSELQIEYLVECGAIHSLSNLLDVEDANIISVTLEGLENILEMGENKKLRDNLPTNPYVHLFEECDSVHKIDALQDRKVDNICNKAWKILYKYFPFVINNELNNAQIPLNNVFANTEDAVLNKDFTFD
modifications: biotin (Sulfo-NHS-Biotin reagent)
[1]
  Kd: 2.5 nM
[2]
  Kd: 6.6 nM

Reference: article PMC9695642, “Conservation of Importin α Function in Apicomplexans: Ivermectin and GW5074 Target Plasmodium falciparum Importin α and Inhibit Parasite Growth in Culture” (International Journal of Molecular Sciences, 2022)
